Laboratory results reported in patent publication US20200297760A1 (JUNO THERAPEUTICS, published 2020).

B1: FIIFWVKRG (peptide)
peptide: FIIFWVKRG
notes: synthetic 9-mer of the CD28-4-1BB junction; mutation: none
B2: FIIFWVQRG (peptide)
peptide: FIIFWVQRG
notes: synthetic 9-mer variant; the entry already carries the change
B3: FIIFWVLRG (peptide)
peptide: FIIFWVLRG
notes: as for B2
B4: FIIFWVSRG (peptide)
peptide: FIIFWVSRG
notes: as for B2
B5: IIFWVKRGH (peptide)
peptide: IIFWVKRGH
notes: as for B2
B6: IIFWVQRGN (peptide)
peptide: IIFWVQRGN
notes: synthetic 9-mer variant; the entry already carries the changes
B7: IIFWVQRGS (peptide)
peptide: IIFWVQRGS
notes: as for B6
B8: WVKRGRKKL (peptide)
peptide: WVKRGRKKL
notes: as for B1
B9: WVKRGRKKS (peptide)
peptide: WVKRGRKKS
notes: as for B2
B10: WVKRGLKKL (peptide)
peptide: WVKRGLKKL
notes: as for B2
B11: WVHRGRKKL (peptide)
peptide: WVHRGRKKL
notes: as for B2
B12: WVQRGSKKL (peptide)
peptide: WVQRGSKKL
notes: as for B6
B13: WVSRGRKKL (peptide)
peptide: WVSRGRKKL
notes: as for B2
B14: WVLRGRKKL (peptide)
peptide: WVLRGRKKL
notes: as for B2
B15: WVQRGAKKL (peptide)
peptide: WVQRGAKKL
notes: as for B6
B16: IFWVKRGRK (peptide)
peptide: IFWVKRGRK
notes: as for B1
B17: IFWVLRGRK (peptide)
peptide: IFWVLRGRK
notes: as for B2
B18: IFWVQRGSK (peptide)
peptide: IFWVQRGSK
notes: as for B6
B19: FWVKRGRKK (peptide)
peptide: FWVKRGRKK
notes: as for B1
B20: FWVHRGRKK (peptide)
peptide: FWVHRGRKK
notes: as for B2
B21: FWVARGRKK (peptide)
peptide: FWVARGRKK
notes: as for B2
B22: FWVQRGRKK (peptide)
peptide: FWVQRGRKK
notes: as for B2
B23: FWVLRGRKK (peptide)
peptide: FWVLRGRKK
notes: as for B2
B24: FWVQRGNKK (peptide)
peptide: FWVQRGNKK
notes: as for B6
B25: FWVKRGHKK (peptide)
peptide: FWVKRGHKK
notes: as for B2
B26: FWVSRGRKK (peptide)
peptide: FWVSRGRKK
notes: as for B2
B27: FWVKRGSKK (peptide)
peptide: FWVKRGSKK
notes: as for B2
B28: FWVQRGAKK (peptide)
peptide: FWVQRGAKK
notes: as for B6
B29: FWVQRGSKK (peptide)
peptide: FWVQRGSKK
notes: as for B6
B30: FWVKRGAKK (peptide)
peptide: FWVKRGAKK
notes: as for B2
B31: VAFIIFWVA (peptide)
peptide: VAFIIFWVA
notes: as for B2

Columns and labels:
[1] = biological target: T1, HLA-A*03:01 (human); assay: REVEAL MHC-peptide binding assay, recombinant HLA
T1 construct: recombinant MHC class I molecule incubated with the synthetic peptide (REVEAL, ProImmune)
Experimental: (§1) Specifically, assessment was of a series of overlapping 9-mer peptides derived from the sequence […] (set forth in SEQ ID NO: 7), which contains a portion of the CD28 transmembrane domain and 4-1BB costimulatory domain spanning the junction between the domains (bond joining the two amino acids noted in underline). In addition, a series of overlapping 9-mer peptides of each of a number of different variants of this portion also were assessed, each variant containing a mutation or mutations in this region as described in Example 2.
(§2) The various 9-mer overlapping peptides were synthesized and their purity tested by MALDI-TOF Mass Spectrometry.

[2] = biological target: T2, HLA-A*02:01 (human); assay: REVEAL MHC-peptide binding assay, recombinant HLA
T2 construct: recombinant MHC class I molecule incubated with the synthetic peptide (REVEAL, ProImmune)
Experimental: as §1, §2

[3] = biological target: HLA-A*11:01 (recombinant MHC class I molecule) (human); assay: REVEAL MHC-peptide binding assay, recombinant HLA-A*11:01
Experimental: as §1, §2

[4] = biological target: HLA-B*08:01 (recombinant MHC class I molecule) (human); assay: REVEAL MHC-peptide binding assay, recombinant HLA-B*08:01
Experimental: as §1, §2

Binder | In Vitro Score [1] | In Vitro Score [2] | In Vitro Score [3] | In Vitro Score [4]
B1 | 1.4 % of positive control peptide | 10.1 % of positive control peptide | – | –
B2 | 0.4 % of positive control peptide | 16.8 % of positive control peptide | – | –
B3 | 0.1 % of positive control peptide | 7.2 % of positive control peptide | – | –
B4 | 0.1 % of positive control peptide | 0.2 % of positive control peptide | – | –
B5 | 26.6 % of positive control peptide | 5.3 % of positive control peptide | – | –
B6 | 3.6 % of positive control peptide | 13 % of positive control peptide | – | –
B7 | 4.5 % of positive control peptide | 22.4 % of positive control peptide | – | –
B8 | 13.1 % of positive control peptide | 1.4 % of positive control peptide | – | –
B9 | 0.9 % of positive control peptide | 3.9 % of positive control peptide | – | –
B10 | 10 % of positive control peptide | 24.5 % of positive control peptide | – | –
B11 | 3.4 % of positive control peptide | 1.6 % of positive control peptide | – | –
B12 | 1.2 % of positive control peptide | 4.4 % of positive control peptide | – | –
B13 | 2.1 % of positive control peptide | 2.3 % of positive control peptide | – | –
B14 | 0.7 % of positive control peptide | 2.4 % of positive control peptide | – | –
B15 | 2 % of positive control peptide | 3 % of positive control peptide | – | –
WVKRGRKKL [Synthetic peptide WVKRGRKKL] | – | – | 4.8 score, % of positive control peptide | 28.5 score, % of positive control peptide
WVHRGRKKL [Synthetic peptide WVHRGRKKL] | – | – | 5.6 score, % of positive control peptide | 19.2 score, % of positive control peptide
WVKRGLKKL [Synthetic peptide WVKRGLKKL] | – | – | 22.1 score, % of positive control peptide | 65.7 score, % of positive control peptide
WVLRGRKKL [Synthetic peptide WVLRGRKKL] | – | – | 3.2 score, % of positive control peptide | 4 score, % of positive control peptide
WVSRGRKKL [Synthetic peptide WVSRGRKKL] | – | – | 4.4 score, % of positive control peptide | 6.2 score, % of positive control peptide
WVKRGRKKS [Synthetic peptide WVKRGRKKS] | – | – | 6.7 score, % of positive control peptide | 4.3 score, % of positive control peptide
WVQRGAKKL [Synthetic peptide WVQRGAKKL] | – | – | 3.8 score, % of positive control peptide | 11.4 score, % of positive control peptide
B16 | 20.5 % of positive control peptide | 4.5 % of positive control peptide | – | –
B17 | 19.5 % of positive control peptide | 2.9 % of positive control peptide | – | –
B18 | 20.3 % of positive control peptide | 33.5 % of positive control peptide | – | –

Binder | In Vitro Score [1] | In Vitro Score [2] | In Vitro Score [3] | In Vitro Score [4]
VAFIIFWVA [Synthetic peptide VAFIIFWVA] | – | – | 2.8 score, % of positive control peptide | 0 score, % of positive control peptide
VAFIIFWVH [Synthetic peptide VAFIIFWVH] | – | – | 12.3 score, % of positive control peptide | 0 score, % of positive control peptide
VAFIIFWVL [Synthetic peptide VAFIIFWVL] | – | – | 0.2 score, % of positive control peptide | 0 score, % of positive control peptide
VAFIIFWVQ [Synthetic peptide VAFIIFWVQ] | – | – | 3.9 score, % of positive control peptide | 0.2 score, % of positive control peptide
FWVQRGAKK [Synthetic peptide FWVQRGAKK] | – | – | 18.3 score, % of positive control peptide | 0 score, % of positive control peptide
FWVQRGRKK [Synthetic peptide FWVQRGRKK] | – | – | 5.7 score, % of positive control peptide | 1.9 score, % of positive control peptide
FWVQRGNKK [Synthetic peptide FWVQRGNKK] | – | – | 5.9 score, % of positive control peptide | 0 score, % of positive control peptide
FWVSRGRKK [Synthetic peptide FWVSRGRKK] | – | – | 6.3 score, % of positive control peptide | 0 score, % of positive control peptide
FWVQRGSKK [Synthetic peptide FWVQRGSKK] | – | – | 6.8 score, % of positive control peptide | 0 score, % of positive control peptide
B19 | 2.2 % of positive control peptide | 3.5 % of positive control peptide | – | –
B20 | 3.6 % of positive control peptide | 1.6 % of positive control peptide | – | –
B21 | 5 % of positive control peptide | 13.5 % of positive control peptide | – | –
B22 | 6.4 % of positive control peptide | 5.2 % of positive control peptide | – | –
B23 | 0.4 % of positive control peptide | 3.3 % of positive control peptide | – | –
B24 | 1.3 % of positive control peptide | 3.1 % of positive control peptide | – | –
B25 | 4.1 % of positive control peptide | 2.6 % of positive control peptide | – | –
B26 | 2.9 % of positive control peptide | 1.5 % of positive control peptide | – | –
B27 | 5.9 % of positive control peptide | 1.9 % of positive control peptide | – | –
B28 | 2.7 % of positive control peptide | 2.2 % of positive control peptide | – | –
B29 | 1.9 % of positive control peptide | 0.8 % of positive control peptide | – | –
B30 | 4.7 % of positive control peptide | 4.3 % of positive control peptide | – | –
B31 | 0 % of positive control peptide | 28.5 % of positive control peptide | – | –
IIFWVKRGH [Synthetic peptide IIFWVKRGH] | – | – | 19.5 score, % of positive control peptide | 0.1 score, % of positive control peptide
IIFWVQRGS [Synthetic peptide IIFWVQRGS] | – | – | 16.9 score, % of positive control peptide | 0.1 score, % of positive control peptide
IIFWVQRGN [Synthetic peptide IIFWVQRGN] | – | – | 29 score, % of positive control peptide | 0 score, % of positive control peptide
